T1: Boi1 SH3 (BOI1_YEAST), P38041
T1 chain: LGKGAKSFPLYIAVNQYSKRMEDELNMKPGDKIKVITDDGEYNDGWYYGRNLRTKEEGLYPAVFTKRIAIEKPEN

T2: Boi2 SH3 (BOI2_YEAST), P39969
T2 chain: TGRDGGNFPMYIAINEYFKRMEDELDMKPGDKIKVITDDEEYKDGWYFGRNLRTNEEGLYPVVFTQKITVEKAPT

T3: Rvs167 SH3 (RV167_YEAST), P39743
T3 chain: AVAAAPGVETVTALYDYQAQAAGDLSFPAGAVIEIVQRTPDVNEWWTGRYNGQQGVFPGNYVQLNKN

T4: Yfr024 SH3 (LSB3_YEAST), P43603
T4 chain: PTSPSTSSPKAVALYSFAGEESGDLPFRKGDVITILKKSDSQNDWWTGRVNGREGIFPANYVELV

T5: Yhr016c SH3 (YSC84_YEAST), P32793
T5 chain: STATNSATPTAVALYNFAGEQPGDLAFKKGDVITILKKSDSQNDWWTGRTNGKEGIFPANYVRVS


Tests used:
Test in all cases: SPOT array
[1] = target: T1, Boi1 SH3 (BOI1_YEAST), P38041
[2] = target: T2, Boi2 SH3 (BOI2_YEAST), P39969
[3] = target: T3, Rvs167 SH3 (RV167_YEAST), P39743
[4] = target: T4, Yfr024 SH3 (LSB3_YEAST), P43603
[5] = target: T5, Yhr016c SH3 (YSC84_YEAST), P32793

Row | Binder | normalised SPOT signal, Boehringer light units (BLU); mean over the file's lines of this peptide [1] | normalised SPOT signal, Boehringer light units (BLU); mean over the file's lines of this peptide [2] | normalised SPOT signal, Boehringer light units (BLU); mean over the file's lines of this peptide [3] | normalised SPOT signal, Boehringer light units (BLU); mean over the file's lines of this peptide [4] | normalised SPOT signal, Boehringer light units (BLU); mean over the file's lines of this peptide [5]
1 | GAPPTTPSRPRTTT [YGR170W 91-104] | 0 | 78.2 | 366 | 13900 | 9930
2 | FSKPQEPVKAEEAE [YCR088W 393-406] | 76.7 | 23.9 | 27.2 | 276 | 773
3 | FWNPENPYKFVHPR [YEL011W 171-184] | 169 | 55.6 | 67.7 | 524 | 248
4 | FVIPGVPSKSYSLF [YGR065C 310-323] | 94 | 48.3 | 0 | 44.7 | 66.7
5 | FQPPPKPFRRSQSS [YBR108W 657-670] | 800 | 308 | 8580 | 45100 | 51000
6 | FYEPLDPQKDKDMT [YJL155C 176-189] | 71.3 | 19.8 | 14.1 | 121 | 129
7 | GGDPTKPVRTWNDL [YEL056W 193-206] | 31.1 | 42.7 | 16.4 | 203 | 170
8 | FRFPRLPQKKKEEL [YGL130W 106-119] | 105 | 172 | 1200 | 19500 | 1370
9 | FTAPPVPTKKKSKN [YDR517W 316-329] | 346 | 44.8 | 86.4 | 9160 | 216
10 | GAKPKIPSKLYQSV [YBR138C 124-137] | 68.4 | 76.3 | 42.7 | 313 | -0
11 | GGQPPVPVRMQPQP [YBR108W 379-392] | 85.9 | 89.9 | 794 | 6010 | 1930
12 | FPYPFKPSRVGVKY [YGL131C 440-453] | 178 | 81.9 | 118 | 2790 | 260
13 | FPYPGNPLKIINYE [YGR233C 862-875] | 125 | 39 | 87 | 49.4 | 0

Next, values leading:

Row | normalised SPOT signal, Boehringer light units (BLU); mean over the file's lines of this peptide [1] | normalised SPOT signal, Boehringer light units (BLU); mean over the file's lines of this peptide [2] | normalised SPOT signal, Boehringer light units (BLU); mean over the file's lines of this peptide [3] | normalised SPOT signal, Boehringer light units (BLU); mean over the file's lines of this peptide [4] | normalised SPOT signal, Boehringer light units (BLU); mean over the file's lines of this peptide [5] | Binder
14 | 11000 | 160 | 11800 | 25900 | 23200 | FVPPNLPMRRFKEI [YNL047C 421-434]
15 | 898 | 1080 | 10100 | 34100 | 9870 | FVSPRIPSRIVKNG [YOR086C 892-905]
16 | 104 | 17.2 | 75.6 | 47.2 | 154 | GAPPPPPHKDHLSD [YMR280C 206-219]
17 | 128 | 2 | 28.4 | 7090 | 119 | GGPPLLPQKSAAFQ [YPL084W 731-744]
18 | 25.2 | 31.7 | 22.1 | 19.8 | 266 | GHTPQFPTKDEVSS [YNR031C 1516-1529]
19 | 94.3 | 5.7 | 48.1 | 225 | 236 | GAIPRGPKKDDASF [YPR161C 424-437]
20 | 133 | 41.4 | 33.2 | 1350 | 116 | FREPDLPRKGLLED [YJR054W 476-489]
21 | 96.3 | 20.4 | 16.4 | 4240 | 75.7 | FVLPSLPRKNTYKV [YOR034C 343-356]
22 | 867 | 44.1 | 28.6 | 292 | 36.3 | FYYPESPTKNLRPR [YML119W 56-69]
